Article PMC4125498 (Nature structural & molecular biology, 2014)
One block for each binder: values may come before it. No end group written: not given here.

B1: human Plk4 cryptic polo box (CPB, residues 580–808), His6-MBP tag removed (domain or fragment, UniProt O00444 580-808, looked up)
chain: WGYQNRTLRSITSPLVAHRLKPIRQKTKKAVVSILDSEEVCVELVKEYASQEYVKEVLQISSDGNTITIYYPNGGRGFPLADRPPSPTDNISRYSFDNLPEKYWRKYQYASRFVQLVRSKSPKITYFTRYAKCILMENSPGADFEVWFYDGVKIHKTEDFIQVIEKTGKSYTLKSESEVNSLKEEIKMYMDHANEGHRICLALESIISEEERKTRSAPFFPIIIGRKPG

Assays:
[1] = target: T1, His6-MBP-TEV-Cep192 58mer (201–258) (human, UniProt Q8TEP8 201-258); assay: pull-down
T1 sequence (looked up): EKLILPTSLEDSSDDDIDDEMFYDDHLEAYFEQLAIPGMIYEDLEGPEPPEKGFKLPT

[2] = target: B1; assay: fluorescence polarisation
[3] = target: B1; assay: fluorescence polarisation; remark: listed apart in the source
GST-Plk4 C (580–970) = target: T2, GST-Plk4 C (580–970) (human, UniProt O00444 580-970); assay: pull-down
T2 sequence (looked up): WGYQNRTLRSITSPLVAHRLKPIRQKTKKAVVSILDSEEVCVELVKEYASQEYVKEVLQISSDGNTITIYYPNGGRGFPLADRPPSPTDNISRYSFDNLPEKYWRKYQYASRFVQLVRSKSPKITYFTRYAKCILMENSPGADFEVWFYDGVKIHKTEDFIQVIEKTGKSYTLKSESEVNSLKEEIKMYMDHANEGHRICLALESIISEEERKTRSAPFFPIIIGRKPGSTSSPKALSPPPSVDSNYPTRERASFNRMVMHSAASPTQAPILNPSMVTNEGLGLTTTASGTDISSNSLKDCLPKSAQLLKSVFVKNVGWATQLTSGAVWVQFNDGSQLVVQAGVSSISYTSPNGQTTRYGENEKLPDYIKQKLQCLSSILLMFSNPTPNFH

- IC50 [3]: 64 nM
B3: His6-MBP-TEV-Cep152 60mer (1–60) (domain or fragment, human, UniProt O94986 1-60, looked up)
chain: MSLDFGSVALPVQNEDEEYDEEDYEREKELQQLLTDLPHDMLDDDLSSPELQYSDCSEDG

- binding result (GST-Plk4 C (580–970)): binds
B4: His6-MBP-TEV-Cep152 (1–217) (domain or fragment, human, UniProt O94986 1-217, looked up)
chain: MSLDFGSVALPVQNEDEEYDEEDYEREKELQQLLTDLPHDMLDDDLSSPELQYSDCSEDGTDGQPHHPEQLEMSWNEQMLPKSQSVNGYNEIQSLYAGEKCGNVWEENRSKTEDRHPVYHPEEGGDEGGSGYSPPSKCEQTDLYHLPENFRPYTNGQKQEFNNQATNVIKFSDPQWNHFQGPSCQGLEPYNKVTYKPYQSSAQNNGSPAQEITGSDT

Second part, the binder before the results:

Binder: B1
- stoichiometry N [1]: ~2 MBP-Cep192-58mer per CPB dimer

B2: Alexa 488-conjugated MBP-Cep152-60mer (domain or fragment, human, UniProt O94986 1-60, looked up)
chain: MSLDFGSVALPVQNEDEEYDEEDYEREKELQQLLTDLPHDMLDDDLSSPELQYSDCSEDG
modifications: also: Alexa Fluor 488 conjugated, sites not given here, MBP fusion
- Kd [2]: 32 nM

B5: Alexa 488-conjugated MBP-Cep192-58mer (domain or fragment, human, UniProt Q8TEP8 201-258, looked up)
chain: EKLILPTSLEDSSDDDIDDEMFYDDHLEAYFEQLAIPGMIYEDLEGPEPPEKGFKLPT
modifications: also: Alexa Fluor 488 conjugated, sites not given here, MBP fusion
- Kd [2]: 177 nM
